Values belong to the substance of their own block, whether it stands above or below them. Ends that are not written are not given here. * marks the point of attachment. Biotin = O=C1N[C@H]2[C@H](CS[C@H]2CCCCC(=O)*)N1
How the values were obtained:
Assay in all cases: G' assay (10 uM PL peptide), results of TABLE 7 and TABLE 12
Format in all cases: binding
[1] = target: T1, PDZ protein (GST-PDZ fusion) (Homo sapiens, UniProt O75970); conditions: PDZ MUPP-1, PDZ Domain 10
T1 construct: made in house; host or cells: E. coli (DH5alpha, BL21 or JM109)
Summary of the method: (§1)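 Binding classes derive from A450 nm of bound biotin-tagged PL peptide. A score of 5 needs A450 above 4 in more than two repeats.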

[2] = target: T2, PDZ protein (GST-PDZ fusion) (Homo sapiens, UniProt P50479); conditions: PDZ LIM RIL, PDZ Domain 1
T2 construct: made in house; host or cells: E. coli (DH5alpha, BL21 or JM109)
T2 sequence (P50479 1-330): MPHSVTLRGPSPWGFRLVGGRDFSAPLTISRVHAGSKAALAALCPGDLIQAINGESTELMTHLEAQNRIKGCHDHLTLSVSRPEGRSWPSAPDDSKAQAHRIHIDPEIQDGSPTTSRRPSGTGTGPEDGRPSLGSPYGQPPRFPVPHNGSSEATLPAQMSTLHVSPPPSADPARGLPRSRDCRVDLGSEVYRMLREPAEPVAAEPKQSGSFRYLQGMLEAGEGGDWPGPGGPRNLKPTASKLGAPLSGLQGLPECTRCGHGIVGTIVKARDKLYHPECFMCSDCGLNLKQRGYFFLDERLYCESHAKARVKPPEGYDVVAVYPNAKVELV
Summary of the method: as §1

[3] = target: T3, PDZ protein (GST-PDZ fusion) (Homo sapiens, UniProt Q02410)
T3 construct: made in house; host or cells: E. coli (DH5alpha, BL21 or JM109)
T3 sequence (Q02410 1-837): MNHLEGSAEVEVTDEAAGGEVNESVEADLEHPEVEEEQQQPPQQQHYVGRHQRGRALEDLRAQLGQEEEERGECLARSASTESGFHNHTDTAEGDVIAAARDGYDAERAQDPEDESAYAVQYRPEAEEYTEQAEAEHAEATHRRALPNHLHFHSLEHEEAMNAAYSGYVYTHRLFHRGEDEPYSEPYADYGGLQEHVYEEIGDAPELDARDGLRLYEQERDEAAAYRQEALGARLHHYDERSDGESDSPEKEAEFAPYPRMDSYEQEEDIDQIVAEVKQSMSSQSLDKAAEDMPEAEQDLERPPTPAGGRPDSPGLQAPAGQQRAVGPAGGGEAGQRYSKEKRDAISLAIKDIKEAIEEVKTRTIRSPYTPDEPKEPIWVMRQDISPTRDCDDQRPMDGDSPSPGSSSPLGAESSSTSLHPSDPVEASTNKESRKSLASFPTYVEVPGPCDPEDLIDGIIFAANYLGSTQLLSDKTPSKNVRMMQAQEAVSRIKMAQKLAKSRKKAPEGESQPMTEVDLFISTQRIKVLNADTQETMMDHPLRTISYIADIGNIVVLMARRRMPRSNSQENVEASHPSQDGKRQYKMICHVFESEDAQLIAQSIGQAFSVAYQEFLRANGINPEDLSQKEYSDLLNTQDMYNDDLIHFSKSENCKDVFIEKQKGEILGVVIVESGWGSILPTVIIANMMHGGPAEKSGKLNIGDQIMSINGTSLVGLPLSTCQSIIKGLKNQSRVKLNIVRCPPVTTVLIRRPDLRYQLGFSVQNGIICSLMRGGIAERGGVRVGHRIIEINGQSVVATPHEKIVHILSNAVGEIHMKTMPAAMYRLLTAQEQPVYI
Summary of the method: as §1

[4] = target: T4, PDZ protein (GST-PDZ fusion) (Homo sapiens, UniProt Q8NI35); conditions: PDZ INADL, PDZ Domain 8
T4 construct: made in house; host or cells: E. coli (DH5alpha, BL21 or JM109)
Summary of the method: as §1

[5] = target: T5, PDZ protein (GST-PDZ fusion) (Homo sapiens, UniProt Q07157)
T5 construct: made in house; host or cells: E. coli (DH5alpha, BL21 or JM109)
Summary of the method: as §1

[6] = target: T6, PDZ protein (GST-PDZ fusion) (Homo sapiens, UniProt Q9UDY2); conditions: PDZ ZO-2, PDZ Domain 2
T6 construct: made in house; host or cells: E. coli (DH5alpha, BL21 or JM109)
T6 sequence (Q9UDY2 1-1190): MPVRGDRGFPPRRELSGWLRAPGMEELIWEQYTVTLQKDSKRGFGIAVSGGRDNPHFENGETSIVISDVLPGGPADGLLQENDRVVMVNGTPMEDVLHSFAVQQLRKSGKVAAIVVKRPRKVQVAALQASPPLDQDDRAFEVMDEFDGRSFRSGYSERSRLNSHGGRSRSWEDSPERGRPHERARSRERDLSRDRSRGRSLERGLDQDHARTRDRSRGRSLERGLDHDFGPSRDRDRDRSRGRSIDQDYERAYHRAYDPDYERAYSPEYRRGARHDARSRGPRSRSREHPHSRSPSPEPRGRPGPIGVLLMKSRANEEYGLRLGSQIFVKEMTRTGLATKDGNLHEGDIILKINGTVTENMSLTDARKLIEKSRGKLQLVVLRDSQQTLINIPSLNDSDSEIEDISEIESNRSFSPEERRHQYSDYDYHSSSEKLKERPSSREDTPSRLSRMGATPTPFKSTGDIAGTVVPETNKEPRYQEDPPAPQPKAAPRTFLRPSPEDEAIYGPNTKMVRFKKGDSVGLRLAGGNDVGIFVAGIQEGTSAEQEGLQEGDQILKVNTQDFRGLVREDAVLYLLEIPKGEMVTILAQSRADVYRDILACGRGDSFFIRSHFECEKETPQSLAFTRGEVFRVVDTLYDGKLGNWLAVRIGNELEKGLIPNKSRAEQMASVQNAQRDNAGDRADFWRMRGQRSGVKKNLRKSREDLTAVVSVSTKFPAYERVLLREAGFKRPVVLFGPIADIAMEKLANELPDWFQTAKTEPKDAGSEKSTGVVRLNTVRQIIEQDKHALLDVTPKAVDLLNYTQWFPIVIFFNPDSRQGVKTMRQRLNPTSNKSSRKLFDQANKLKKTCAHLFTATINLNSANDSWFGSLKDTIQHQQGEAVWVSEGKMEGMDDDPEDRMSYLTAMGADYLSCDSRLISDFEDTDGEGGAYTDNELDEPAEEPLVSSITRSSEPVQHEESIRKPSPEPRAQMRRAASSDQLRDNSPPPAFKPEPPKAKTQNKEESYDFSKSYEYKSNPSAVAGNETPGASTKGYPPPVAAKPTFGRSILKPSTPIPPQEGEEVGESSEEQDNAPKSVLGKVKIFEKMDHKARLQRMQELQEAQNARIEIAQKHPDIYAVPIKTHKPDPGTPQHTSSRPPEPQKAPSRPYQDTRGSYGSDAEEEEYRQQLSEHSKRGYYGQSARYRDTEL
Summary of the method: as §1

[7] = tested on: PDZ protein (GST-PDZ fusion)
Summary of the method: as §1

[8] = target: T7, PDZ protein (GST-PDZ fusion) (Homo sapiens, UniProt O15018); conditions: PDZ AIPC, PDZ Domain 1
T7 construct: made in house; host or cells: E. coli (DH5alpha, BL21 or JM109)
Summary of the method: as §1

[9] = target: T8, PDZ protein (GST-PDZ fusion) (Homo sapiens, UniProt O15085); conditions: PDZ KIAA0380, PDZ Domain 1
T8 construct: made in house; host or cells: E. coli (DH5alpha, BL21 or JM109)
Summary of the method: as §1

[10] = target: T9, PDZ protein (GST-PDZ fusion) (Homo sapiens, UniProt Q13796); conditions: PDZ hAPXL, PDZ Domain 1
T9 construct: made in house; host or cells: E. coli (DH5alpha, BL21 or JM109)
Summary of the method: as §1

[11] = target: T10, PDZ protein (GST-PDZ fusion) (Homo sapiens, UniProt Q6P0Q8)
T10 construct: made in house; host or cells: E. coli (DH5alpha, BL21 or JM109)
Summary of the method: as §1

[12] = target: T11, PDZ protein (GST-PDZ fusion) (Homo sapiens, UniProt Q9Y2H9); conditions: PDZ KIAA0973, PDZ Domain 1
T11 construct: made in house; host or cells: E. coli (DH5alpha, BL21 or JM109)
Summary of the method: as §1

[13] = target: T12, PDZ protein (GST-PDZ fusion) (Homo sapiens, UniProt Q12959); conditions: PDZ DLG1, PDZ Domain 1, 2
T12 construct: made in house; host or cells: E. coli (DH5alpha, BL21 or JM109)
Summary of the method: as §1

[14] = target: T13, PDZ protein (GST-PDZ fusion) (Homo sapiens, UniProt Q5T2W1); conditions: PDZ PDZK1, PDZ Domain 2, 3, 4
T13 construct: made in house; host or cells: E. coli (DH5alpha, BL21 or JM109)
T13 sequence (Q5T2W1 1-519): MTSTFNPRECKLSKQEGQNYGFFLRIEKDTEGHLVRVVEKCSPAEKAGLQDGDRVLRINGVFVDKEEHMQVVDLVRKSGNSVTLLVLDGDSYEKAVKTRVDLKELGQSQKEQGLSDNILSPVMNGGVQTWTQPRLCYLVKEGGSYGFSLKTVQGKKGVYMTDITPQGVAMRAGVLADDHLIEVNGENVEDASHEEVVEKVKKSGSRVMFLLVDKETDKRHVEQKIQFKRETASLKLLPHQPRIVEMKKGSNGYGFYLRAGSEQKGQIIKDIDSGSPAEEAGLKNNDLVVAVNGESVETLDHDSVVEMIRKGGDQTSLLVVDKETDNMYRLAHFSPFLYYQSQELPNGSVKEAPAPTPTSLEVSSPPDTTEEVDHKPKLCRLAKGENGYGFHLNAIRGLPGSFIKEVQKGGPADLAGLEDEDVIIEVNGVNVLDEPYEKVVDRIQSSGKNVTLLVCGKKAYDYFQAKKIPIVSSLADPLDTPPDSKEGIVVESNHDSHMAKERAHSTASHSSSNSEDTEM
Summary of the method: as §1

[15] = target: T14, PDZ protein (GST-PDZ fusion) (Homo sapiens, UniProt Q9P202); conditions: PDZ KIAA1526, PDZ Domain 1
T14 construct: made in house; host or cells: E. coli (DH5alpha, BL21 or JM109)
T14 sequence (Q9P202 1-907): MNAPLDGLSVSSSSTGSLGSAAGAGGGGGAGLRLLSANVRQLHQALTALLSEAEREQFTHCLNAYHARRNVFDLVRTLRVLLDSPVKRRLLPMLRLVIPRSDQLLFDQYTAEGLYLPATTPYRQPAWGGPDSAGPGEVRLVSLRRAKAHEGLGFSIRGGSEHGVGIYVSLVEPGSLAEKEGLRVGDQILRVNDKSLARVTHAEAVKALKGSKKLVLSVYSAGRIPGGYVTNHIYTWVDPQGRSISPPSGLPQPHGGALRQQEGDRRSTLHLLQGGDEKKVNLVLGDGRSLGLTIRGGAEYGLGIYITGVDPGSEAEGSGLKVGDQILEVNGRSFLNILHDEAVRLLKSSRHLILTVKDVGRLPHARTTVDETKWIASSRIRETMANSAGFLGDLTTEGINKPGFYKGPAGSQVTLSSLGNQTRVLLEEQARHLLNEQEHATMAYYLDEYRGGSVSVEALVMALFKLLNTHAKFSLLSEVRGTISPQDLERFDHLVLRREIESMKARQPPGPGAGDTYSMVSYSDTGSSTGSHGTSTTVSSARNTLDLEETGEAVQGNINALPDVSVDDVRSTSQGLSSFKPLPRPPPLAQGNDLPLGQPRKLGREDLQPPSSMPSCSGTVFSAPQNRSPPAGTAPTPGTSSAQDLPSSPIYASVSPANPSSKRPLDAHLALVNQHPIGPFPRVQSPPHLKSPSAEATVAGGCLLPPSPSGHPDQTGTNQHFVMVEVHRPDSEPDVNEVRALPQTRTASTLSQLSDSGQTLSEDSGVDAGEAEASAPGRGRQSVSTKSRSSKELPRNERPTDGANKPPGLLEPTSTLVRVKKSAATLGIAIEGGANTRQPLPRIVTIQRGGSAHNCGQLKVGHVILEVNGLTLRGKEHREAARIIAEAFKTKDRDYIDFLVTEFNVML
Summary of the method: as §1

T5 sequence (Q07157 whole entry, the tested form may be a part): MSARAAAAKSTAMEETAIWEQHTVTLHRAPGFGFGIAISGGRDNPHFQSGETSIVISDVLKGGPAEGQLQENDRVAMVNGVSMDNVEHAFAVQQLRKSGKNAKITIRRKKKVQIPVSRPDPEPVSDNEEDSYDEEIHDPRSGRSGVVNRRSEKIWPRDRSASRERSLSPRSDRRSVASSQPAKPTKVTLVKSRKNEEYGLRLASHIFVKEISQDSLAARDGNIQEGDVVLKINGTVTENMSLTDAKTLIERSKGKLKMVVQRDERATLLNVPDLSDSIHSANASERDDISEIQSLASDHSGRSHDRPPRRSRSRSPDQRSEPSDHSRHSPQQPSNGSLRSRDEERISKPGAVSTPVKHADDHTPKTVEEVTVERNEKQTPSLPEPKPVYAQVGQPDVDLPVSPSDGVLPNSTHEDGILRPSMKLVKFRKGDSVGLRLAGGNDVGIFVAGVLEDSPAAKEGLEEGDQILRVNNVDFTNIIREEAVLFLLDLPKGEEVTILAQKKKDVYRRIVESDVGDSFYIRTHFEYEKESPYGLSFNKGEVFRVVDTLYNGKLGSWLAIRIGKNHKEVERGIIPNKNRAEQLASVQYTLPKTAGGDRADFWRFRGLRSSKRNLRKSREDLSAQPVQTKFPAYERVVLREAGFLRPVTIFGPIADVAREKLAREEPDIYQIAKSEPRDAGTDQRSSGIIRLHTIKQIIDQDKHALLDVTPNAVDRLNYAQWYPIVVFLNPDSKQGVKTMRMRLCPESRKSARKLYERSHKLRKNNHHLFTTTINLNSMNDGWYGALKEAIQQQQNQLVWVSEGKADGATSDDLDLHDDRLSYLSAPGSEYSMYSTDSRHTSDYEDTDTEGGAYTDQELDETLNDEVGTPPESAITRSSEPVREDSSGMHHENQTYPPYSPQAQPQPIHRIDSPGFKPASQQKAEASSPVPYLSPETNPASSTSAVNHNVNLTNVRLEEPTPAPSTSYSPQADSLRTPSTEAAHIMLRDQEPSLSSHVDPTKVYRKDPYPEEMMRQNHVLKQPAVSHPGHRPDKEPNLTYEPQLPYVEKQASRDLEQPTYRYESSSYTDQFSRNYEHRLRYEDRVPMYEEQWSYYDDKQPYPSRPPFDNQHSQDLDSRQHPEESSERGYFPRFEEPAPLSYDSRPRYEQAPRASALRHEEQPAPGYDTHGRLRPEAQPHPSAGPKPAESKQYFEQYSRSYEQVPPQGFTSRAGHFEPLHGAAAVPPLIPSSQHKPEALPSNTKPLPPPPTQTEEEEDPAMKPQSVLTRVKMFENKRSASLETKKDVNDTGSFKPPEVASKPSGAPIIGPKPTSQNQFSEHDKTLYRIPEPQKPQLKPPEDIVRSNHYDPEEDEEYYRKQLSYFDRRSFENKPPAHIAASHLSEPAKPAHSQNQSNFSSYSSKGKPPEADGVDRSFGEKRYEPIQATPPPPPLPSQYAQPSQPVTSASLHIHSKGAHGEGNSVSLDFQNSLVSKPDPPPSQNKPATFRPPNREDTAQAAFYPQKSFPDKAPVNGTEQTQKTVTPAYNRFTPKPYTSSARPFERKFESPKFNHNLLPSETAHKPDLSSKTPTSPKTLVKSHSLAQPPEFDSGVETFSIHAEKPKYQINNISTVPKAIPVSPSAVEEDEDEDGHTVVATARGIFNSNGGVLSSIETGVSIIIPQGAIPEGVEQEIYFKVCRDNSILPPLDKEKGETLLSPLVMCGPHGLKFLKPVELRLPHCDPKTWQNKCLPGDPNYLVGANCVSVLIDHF
T10 sequence (Q6P0Q8 whole entry, the tested form may be a part): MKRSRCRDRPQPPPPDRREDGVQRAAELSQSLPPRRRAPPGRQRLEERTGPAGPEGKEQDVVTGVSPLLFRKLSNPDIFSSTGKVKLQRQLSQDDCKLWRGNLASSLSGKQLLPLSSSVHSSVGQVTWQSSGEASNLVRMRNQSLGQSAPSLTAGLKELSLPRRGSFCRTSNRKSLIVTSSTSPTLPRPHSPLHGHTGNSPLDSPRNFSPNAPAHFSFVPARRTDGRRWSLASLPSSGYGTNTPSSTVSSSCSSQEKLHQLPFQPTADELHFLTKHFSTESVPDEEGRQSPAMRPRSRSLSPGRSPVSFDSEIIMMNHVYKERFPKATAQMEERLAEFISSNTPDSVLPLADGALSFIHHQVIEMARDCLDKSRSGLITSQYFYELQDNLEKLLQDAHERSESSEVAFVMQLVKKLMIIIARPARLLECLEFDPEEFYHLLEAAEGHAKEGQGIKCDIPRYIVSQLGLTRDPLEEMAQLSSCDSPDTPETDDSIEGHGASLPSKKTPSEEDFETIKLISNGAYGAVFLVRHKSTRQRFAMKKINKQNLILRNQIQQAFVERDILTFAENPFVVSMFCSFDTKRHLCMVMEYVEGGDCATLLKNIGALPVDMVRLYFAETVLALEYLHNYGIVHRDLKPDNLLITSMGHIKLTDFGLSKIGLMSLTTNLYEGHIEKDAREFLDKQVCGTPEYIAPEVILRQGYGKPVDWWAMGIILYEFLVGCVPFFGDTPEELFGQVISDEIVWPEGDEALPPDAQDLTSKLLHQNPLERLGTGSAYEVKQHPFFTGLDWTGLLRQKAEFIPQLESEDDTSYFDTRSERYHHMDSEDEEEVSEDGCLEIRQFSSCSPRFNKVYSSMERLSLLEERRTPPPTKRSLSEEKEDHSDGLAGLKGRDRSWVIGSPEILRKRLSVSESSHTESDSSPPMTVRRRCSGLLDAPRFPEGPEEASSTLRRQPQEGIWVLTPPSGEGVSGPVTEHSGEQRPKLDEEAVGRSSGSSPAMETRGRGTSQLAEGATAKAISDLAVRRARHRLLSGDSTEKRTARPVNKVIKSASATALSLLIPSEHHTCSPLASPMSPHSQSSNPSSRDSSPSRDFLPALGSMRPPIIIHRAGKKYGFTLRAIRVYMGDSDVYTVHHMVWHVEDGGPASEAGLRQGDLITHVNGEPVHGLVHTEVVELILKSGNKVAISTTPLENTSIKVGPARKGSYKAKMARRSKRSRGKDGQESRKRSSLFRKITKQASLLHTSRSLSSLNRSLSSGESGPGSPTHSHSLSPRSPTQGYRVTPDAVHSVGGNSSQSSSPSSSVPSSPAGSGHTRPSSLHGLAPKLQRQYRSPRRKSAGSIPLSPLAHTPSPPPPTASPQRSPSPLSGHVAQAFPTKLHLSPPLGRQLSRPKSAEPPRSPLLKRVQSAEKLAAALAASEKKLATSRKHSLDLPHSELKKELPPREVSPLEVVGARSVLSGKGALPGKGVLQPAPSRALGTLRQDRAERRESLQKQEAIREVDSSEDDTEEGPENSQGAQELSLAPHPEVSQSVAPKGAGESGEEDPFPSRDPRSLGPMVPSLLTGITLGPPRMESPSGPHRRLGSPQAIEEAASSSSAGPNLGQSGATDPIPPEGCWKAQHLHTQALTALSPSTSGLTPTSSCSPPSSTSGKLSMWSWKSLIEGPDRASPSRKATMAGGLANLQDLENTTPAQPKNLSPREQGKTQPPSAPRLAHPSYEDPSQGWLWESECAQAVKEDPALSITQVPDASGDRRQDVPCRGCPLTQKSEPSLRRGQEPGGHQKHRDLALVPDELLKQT
T8 sequence (O15085 whole entry, the tested form may be a part): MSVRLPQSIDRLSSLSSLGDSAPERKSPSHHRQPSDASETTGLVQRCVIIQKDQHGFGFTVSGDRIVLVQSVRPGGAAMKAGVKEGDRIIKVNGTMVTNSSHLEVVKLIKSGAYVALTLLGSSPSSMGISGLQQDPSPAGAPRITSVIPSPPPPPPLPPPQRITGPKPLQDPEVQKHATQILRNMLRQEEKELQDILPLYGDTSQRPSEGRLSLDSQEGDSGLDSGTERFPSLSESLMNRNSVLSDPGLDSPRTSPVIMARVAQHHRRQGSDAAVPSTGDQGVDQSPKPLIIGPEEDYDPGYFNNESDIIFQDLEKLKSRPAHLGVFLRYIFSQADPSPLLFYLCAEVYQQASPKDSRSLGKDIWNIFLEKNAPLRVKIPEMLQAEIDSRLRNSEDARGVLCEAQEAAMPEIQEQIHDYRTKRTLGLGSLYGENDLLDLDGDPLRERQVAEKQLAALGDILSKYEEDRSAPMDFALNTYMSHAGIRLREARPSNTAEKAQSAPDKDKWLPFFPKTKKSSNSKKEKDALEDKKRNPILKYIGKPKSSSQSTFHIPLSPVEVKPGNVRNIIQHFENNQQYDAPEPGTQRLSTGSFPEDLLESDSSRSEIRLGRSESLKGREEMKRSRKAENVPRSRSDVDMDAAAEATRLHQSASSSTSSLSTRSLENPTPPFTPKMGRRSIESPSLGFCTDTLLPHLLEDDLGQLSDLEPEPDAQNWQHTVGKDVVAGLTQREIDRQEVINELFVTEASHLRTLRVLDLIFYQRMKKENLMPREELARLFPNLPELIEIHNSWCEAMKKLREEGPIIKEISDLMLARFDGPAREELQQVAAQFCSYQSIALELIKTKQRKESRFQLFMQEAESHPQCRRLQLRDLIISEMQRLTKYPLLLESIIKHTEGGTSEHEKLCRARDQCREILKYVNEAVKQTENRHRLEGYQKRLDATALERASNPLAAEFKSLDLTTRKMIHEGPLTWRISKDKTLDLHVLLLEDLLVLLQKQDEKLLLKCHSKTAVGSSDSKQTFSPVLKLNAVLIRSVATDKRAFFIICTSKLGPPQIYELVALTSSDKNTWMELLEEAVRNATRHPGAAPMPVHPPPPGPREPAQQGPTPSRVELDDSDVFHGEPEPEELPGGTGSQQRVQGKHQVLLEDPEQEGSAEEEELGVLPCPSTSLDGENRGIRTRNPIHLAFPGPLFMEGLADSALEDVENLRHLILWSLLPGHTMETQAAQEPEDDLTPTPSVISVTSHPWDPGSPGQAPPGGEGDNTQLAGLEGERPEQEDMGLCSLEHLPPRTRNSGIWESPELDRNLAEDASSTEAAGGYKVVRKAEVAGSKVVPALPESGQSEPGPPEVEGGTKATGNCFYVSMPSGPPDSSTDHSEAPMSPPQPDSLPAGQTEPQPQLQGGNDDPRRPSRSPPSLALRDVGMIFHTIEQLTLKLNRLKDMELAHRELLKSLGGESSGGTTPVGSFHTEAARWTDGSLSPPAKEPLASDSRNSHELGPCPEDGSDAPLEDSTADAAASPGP

Classification [1]: 1 (A450 nm 0-1)
Classification [2]: 1 (A450 nm 0-1)
Classification ([3]; PDZ Mint 1, PDZ Domain 2): 1 (A450 nm 0-1)
Classification [4]: 1 (A450 nm 0-1)
Substance: INSVGSTASSSQPLLVHDDV (Biotin-INSVGSTASSSQPLLVHDDV) [c-kit receptor]

Classification ([5]; PDZ ZO-1, PDZ Domain 2): 2 (A450 nm 1-2)
Classification [6]: 1 (A450 nm 0-1)
Substance: PSSRASSRASSRPRPDDLEI (Biotin-PSSRASSRASSRPRPDDLEI) [CX43]
PDZ proteins bound by the PL (TABLE 7) ([7]; as cited in the text from TABLE 7): ZO-2 and ZO-1

Classification [8]: 2 (A450 nm 1-2)
Classification [9]: 3 (A450 nm 2-3)
Classification ([3]; PDZ Mint 1, PDZ Domain 1, 2): 4 (A450 nm 3-4)
Classification [10]: 2 (A450 nm 1-2)
Classification ([11]; PDZ KIAA807): 5 (A450 nm of 4 more than 2× repeated)
Classification ([11]; PDZ KIAA0807(S), PDZ Domain 1): 5 (A450 nm of 4 more than 2× repeated)
Classification [12]: 2 (A450 nm 1-2)
Substance: SSKSKSSEESQTFFGLYKL (Biotin-SSKSKSSEESQTFFGLYKL) [Fas Ligand]

Classification ([3]; PDZ Mint 1, PDZ Domain 1, 2): 1 (A450 nm 0-1)
Classification [13]: 1 (A450 nm 0-1)
Classification [14]: 1 (A450 nm 0-1)
Classification ([11]; PDZ KIAA807): 1 (A450 nm 0-1)
Substance: SSR4_HUMAN (EALQPEPGRKRIPLTRTTTF)
Classification ([7]; PDZ BAI-1, PDZ Domain 4): 1 (A450 nm 0-1)
Classification ([7]; PDZ BAI-1, PDZ Domain 5): 1 (A450 nm 0-1)

Classification ([5]; PDZ ZO-1, PDZ Domain 1): 1 (A450 nm 0-1)
Classification ([5]; PDZ ZO-1, PDZ Domain 2): 1 (A450 nm 0-1)
Classification [15]: 1 (A450 nm 0-1)
Classification [6]: 1 (A450 nm 0-1)
Substance: TEGNESSEATSPVNAIYSLA (Biotin-TEGNESSEATSPVNAIYSLA) [neurofascin (chicken)]
